Residue numbers refer to the chain shown, from its start. Names and notes keep the numbering of the source.
B1: His6-LEDGF_(345–530) (domain or fragment, UniProt O75475 345-530, looked up)
chain: ETSMDSRLQRIHAEIKNSLKIDNLDVNRCIEALDELASLQVTMQQAQKHTEMITTLKKIRRFKVSQVIMEKSTMLYNKFKNMFLVGEGDSVITQVLNKSLAEQRQHEEANKTKDQGKKGPNKKLEKEQTGSKTLNGGSDAQDGNQPQHNGESNEDSKDNHEASTKKKPSSEERETEISLKDSTLDN
notes: the plasmid has a TEV site after the His tag, a cleavage is not reported; source: E. coli BL21(DE3)pLysS, purified (Ni-NTA, heparin); not shown: His6, N-terminal, kept
B2: His6-LEDGF_(345–530) E451A (domain or fragment, UniProt O75475 345-530, looked up)
chain: B1 chain with E107A
notes: source: E. coli BL21(DE3)pLysS, purified (Ni-NTA, heparin); not shown: His6, N-terminal, kept
B3: His6-LEDGF_(345–530) N454A-K455A (domain or fragment, UniProt O75475 345-530, looked up)
chain: B1 chain with N110A, K111A
notes: as for B2
B4: MBP-LEDGF_(325–426) (domain or fragment, UniProt O75475 325-426, looked up)
chain: EQQNKDEGKKPEVKKVEKKRETSMDSRLQRIHAEIKNSLKIDNLDVNRCIEALDELASLQVTMQQAQKHTEMITTLKKIRRFKVSQVIMEKSTMLYNKFKNM
notes: source: E. coli BL21(DE3)pLysS, purified (amylose resin); not shown: MBP, N-terminal, kept
B5: His6-LEDGF_(1–426) (domain or fragment)
chain: not shown
notes: LEDGF/p75 residues 1-426 (lacks the C-term with the α6-helix); elsewhere LEDGF1-426 is Flag-tagged; source: E. coli BL21(DE3)pLysS, purified (Ni-NTA, heparin); not shown: His6, N-terminal, kept
B6: His6-LEDGF/p52 (natural protein)
chain: not shown
notes: lacks the IBD and C-term; also called His6-tagged LEDGF/p52; source: E. coli BL21(DE3)pLysS, purified (Ni-NTA, heparin); not shown: His6, N-terminal, kept
B7: Flag-LEDGF/p75 E451R-E452R (natural protein)
chain: not shown
notes: LEDGF/p75 with two reverse-charge mutations in the α6-helix; source: E. coli BL21(DE3)pLysS, purified (heparin column, Superdex 75); not shown: Flag, N-terminal, kept
B8: MLL1_(1–160)-GST (domain or fragment, UniProt Q03164 1-160, looked up)
chain: MAHSCRWRFPARPGTTGGGGGGGRRGLGGAPRQRVPALLLPPGPPVGGGGPGAPPSPPAVAAAAAAAGSSGAGVPGGAAAASAASSSSASSSSSSSSSASSGPALLRVGPGFDAALQVSAAIGTNLRRFRAVFGESGGGGGSGEDEQFLGFGSDEEVRVR
notes: MLL1 residues 1-160; also called MLL1_(1–160) fragment; not shown: GST, C-terminal, kept

Assays:
Details in all cases: both partners purified
Flag-LEDGF_(1–426) = target: T1, Flag-LEDGF_(1–426) (UniProt O75475 1-426); assay: AlphaScreen or HTRF; direct titration or cross-titration of two differently tagged proteins at nanomolar concentrations (one partner fixed at 100-350 nM); no nuclease; protein batches held DNA at 2 µg/mL or lower
T1 construct: LEDGF/p75 residues 1-426, truncation missing the complete C-term including the α6-helix; source: E. coli BL21(DE3)pLysS, purified (heparin column, Superdex 75); not shown: Flag, N-terminal, kept

Flag-LEDGF/p75 WT [1] = target: T2, Flag-LEDGF/p75 WT (UniProt O75475 1-530); assay: AlphaScreen or HTRF; competition: 150 nM GST-LEDGF/p75 and 150 nM Flag-LEDGF/p75 outcompeted by increasing concentrations of a third LEDGF construct; apparent IC50
T2 construct: LEDGF/p75, aa 1-530, from the pCp-NAT-3xFlag-LEDGF WT construct; also called Flag-tagged LEDGF/p75; Flag-LEDGF_(1–530); source: E. coli BL21(DE3)pLysS, purified (heparin column, Superdex 75); not shown: 3xFlag, N-terminal, kept

Flag-LEDGF/p75 WT [2] = target: T2, Flag-LEDGF/p75 WT; assay: AlphaScreen or HTRF; direct titration or cross-titration of two differently tagged proteins at nanomolar concentrations (one partner fixed at 100-350 nM); no nuclease; protein batches held DNA at 2 µg/mL or lower
His6-LEDGF_(345–530) = target: B1; assay: as above
GST-LEDGF/p75 = target: T3, GST-LEDGF/p75 (UniProt O75475 1-530); assay: as above
T3 construct: LEDGF/p75 (lens epithelium-derived growth factor p75), aa 1-530, expressed from pGEX-p75; also called GST-tagged LEDGF/p75; full-length GST-tagged LEDGF/p75; source: E. coli BL21(DE3)pLysS, purified as described before [24]; not shown: GST, N-terminal, kept

[3] = target: B7; assay: as above

| Binder | IC50 (Flag-LEDGF/p75 WT [1]) | binding result (Flag-LEDGF/p75 WT [2]) | binding result (Flag-LEDGF_(1–426)) | other results |
| --- | --- | --- | --- | --- |
| B1 | 222 nM |  |  | fold stronger binding than the mutants E451A and N454A-K455A (Flag-LEDGF_(1–426)): ~2 fold |
| B2 |  | binds | binds |  |
| B3 |  | binds | binds |  |
| B4 |  |  |  | binding result (His6-LEDGF_(345–530)): binds |
| B5 | 65.5 nM |  |  |  |
| B6 | 12.2 nM |  |  |  |
| B7 |  |  |  | binding result (GST-LEDGF/p75): binds |
| B8 |  | binds | binds | binding result [3]: binds |

Reference: paper PMC10854676, “The Impact of Lens Epithelium-Derived Growth Factor p75 Dimerization on Its Tethering Function” (Cells, 2024)
